Source: patent EP1443117B1 (UNIVERSITY OF VIRGINIA PATENT FOUNDATION, dated 2010)

Biological target: T1, tssk 2 fused to the GAL4 DNA binding domain (DNA-BD) (human, UniProt P04386 1-147 (Saccharomyces cerevisiae entry), limits assumed)
T1 construct: Yeast two-hybrid bait expressed in reporter strain AH109; also called bait gene (tssk 2); fusion protein of TSSK2 with the DNA-BD
Test: yeast two-hybrid, growth in His-free medium (AH109 reporter strain)

B1: GAL4 activation domain alone (GAL-AD plasmid) (other, UniProt P04386 768-881, looked up)
chain: ANFNQSGNIADSSLSFTFTNSSNGPNLITTQTNSQALSQPIASSNVHDNFMNNEITASKIDDGNNSKPLSPGWTDQTAYNAFGITTGMFNTTTMDDVYNYLFDDEDTPPNPKKE
notes: also called GAL-AD alone
- binding result: no binding
